Measurements as given in publication PMC10199097, “Molecular mechanism of hyperactivation conferred by a truncation of TRPA1” (Nature Communications, 2023).

B1: wild type (WT) human TRPA1 (Transient Receptor Potential Ankyrin subtype 1) (natural protein, UniProt O75762 1-1119, looked up)
chain: MKRSLRKMWRPGEKKEPQGVVYEDVPDDTEDFKESLKVVFEGSAYGLQNFNKQKKLKRCDDMDTFFLHYAAAEGQIELMEKITRDSSLEVLHEMDDYGNTPLHCAVEKNQIESVKFLLSRGANPNLRNFNMMAPLHIAVQGMNNEVMKVLLEHRTIDVNLEGENGNTAVIIACTTNNSEALQILLKKGAKPCKSNKWGCFPIHQAAFSGSKECMEIILRFGEEHGYSRQLHINFMNNGKATPLHLAVQNGDLEMIKMCLDNGAQIDPVEKGRCTAIHFAATQGATEIVKLMISSYSGSVDIVNTTDGCHETMLHRASLFDHHELADYLISVGADINKIDSEGRSPLILATASASWNIVNLLLSKGAQVDIKDNFGRNFLHLTVQQPYGLKNLRPEFMQMQQIKELVMDEDNDGCTPLHYACRQGGPGSVNNLLGFNVSIHSKSKDKKSPLHFAASYGRINTCQRLLQDISDTRLLNEGDLHGMTPLHLAAKNGHDKVVQLLLKKGALFLSDHNGWTALHHASMGGYTQTMKVILDTNLKCTDRLDEDGNTALHFAAREGHAKAVALLLSHNADIVLNKQQASFLHLALHNKRKEVVLTIIRSKRWDECLKIFSHNSPGNKCPITEMIEYLPECMKVLLDFCMLHSTEDKSCRDYYIEYNFKYLQCPLEFTKKTPTQDVIYEPLTALNAMVQNNRIELLNHPVCKEYLLMKWLAYGFRAHMMNLGSYCLGLIPMTILVVNIKPGMAFNSTGIINETSDHSEILDTTNSYLIKTCMILVFLSSIFGYCKEAGQIFQQKRNYFMDISNVLEWIIYTTGIIFVLPLFVEIPAHLQWQCGAIAVYFYWMNFLLYLQRFENCGIFIVMLEVILKTLLRSTVVFIFLLLAFGLSFYILLNLQDPFSSPLLSIIQTFSMMLGDINYRESFLEPYLRNELAHPVLSFAQLVSFTIFVPIVLMNLLIGLAVGDIAEVQKHASLKRIAMQVELHTSLEKKLPLWFLRKVDQKSTIVYPNKPRSGGMLFHIFCFLFCTGEIRQEIPNADKSLEMEILKQKYRLKDLTFLLEKQHELIKLIIQKMEIISETEDDDSHCSFQDRFKKEQMEQRNSRWNTVLRAVKAKTHHLEP
notes: human TRPA1, wild type, 1119 amino acids; Plasmid details are in the Supplementary Information; also called WT TRPA1; WT hTRPA1; source: HEK293T, transfected, in lysate (in intact cells for proximity biotinylation)

Assays:
[1] = biological target: the molecule itself; assay: co-IP + SEC; GFP- and 3×FLAG-tagged subunits co-expressed in HEK293T cells; anti-FLAG immunoprecipitation, eluates analysed by fluorescence size exclusion chromatography (FSEC) of the GFP-tagged subunit; anti-FLAG blot of peak fractions
[2] = biological target: B1; assay: pull-down; FLAG-MBP-WT and Strep-MBP-R919* hTRPA1 co-transfected; lysates tandem purified for Strep- then FLAG-tagged proteins; eluates probed with anti-MBP antibody, band intensities normalised to WT; details: partners not purified

stoichiometry N [2] | Binder | stoichiometry N [1]
– | B1 | 4
1.3 R919* subunits per WT subunit | R919* human TRPA1 mutant (CRAMPT syndrome truncation) (domain or fragment, UniProt O75762 1-918, looked up, human TRPA1 with the patients' nonsense mutation at R919 (c.2755C>T); lacks the final 201 of 1119 amino acids (second pore helix, S6 and the whole cytoplasmic C-terminus); also called R919* TRPA1; R919* hTRPA1; source: HEK293T, transfected, in lysate (in intact cells for proximity biotinylation)) MKRSLRKMWRPGEKKEPQGVVYEDVPDDTEDFKESLKVVFEGSAYGLQNFNKQKKLKRCDDMDTFFLHYAAAEGQIELMEKITRDSSLEVLHEMDDYGNTPLHCAVEKNQIESVKFLLSRGANPNLRNFNMMAPLHIAVQGMNNEVMKVLLEHRTIDVNLEGENGNTAVIIACTTNNSEALQILLKKGAKPCKSNKWGCFPIHQAAFSGSKECMEIILRFGEEHGYSRQLHINFMNNGKATPLHLAVQNGDLEMIKMCLDNGAQIDPVEKGRCTAIHFAATQGATEIVKLMISSYSGSVDIVNTTDGCHETMLHRASLFDHHELADYLISVGADINKIDSEGRSPLILATASASWNIVNLLLSKGAQVDIKDNFGRNFLHLTVQQPYGLKNLRPEFMQMQQIKELVMDEDNDGCTPLHYACRQGGPGSVNNLLGFNVSIHSKSKDKKSPLHFAASYGRINTCQRLLQDISDTRLLNEGDLHGMTPLHLAAKNGHDKVVQLLLKKGALFLSDHNGWTALHHASMGGYTQTMKVILDTNLKCTDRLDEDGNTALHFAAREGHAKAVALLLSHNADIVLNKQQASFLHLALHNKRKEVVLTIIRSKRWDECLKIFSHNSPGNKCPITEMIEYLPECMKVLLDFCMLHSTEDKSCRDYYIEYNFKYLQCPLEFTKKTPTQDVIYEPLTALNAMVQNNRIELLNHPVCKEYLLMKWLAYGFRAHMMNLGSYCLGLIPMTILVVNIKPGMAFNSTGIINETSDHSEILDTTNSYLIKTCMILVFLSSIFGYCKEAGQIFQQKRNYFMDISNVLEWIIYTTGIIFVLPLFVEIPAHLQWQCGAIAVYFYWMNFLLYLQRFENCGIFIVMLEVILKTLLRSTVVFIFLLLAFGLSFYILLNLQDPFSSPLLSIIQTFSMMLGDINY | –
